Patent US20110207677

Target: T1, L-TAT-IB1(s)
T1 chain: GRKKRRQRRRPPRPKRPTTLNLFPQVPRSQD

B1: Recombinant and non activated JNK3 (protein)
chain: MSLHFLYYCSEPTLDVKIAFCQGFDKQVDVSYIAKHYNMSKSKVDNQFYSVEVGDSTFTVLKRYQNLKPIGSGAQGIVCAAYDAVLDRNVAIKKLSRPFQNQTHAKRAYRELVLMKCVNHKNIISLLNVFTPQKTLEEFQDVYLVMELMDANLCQVIQMELDHERMSYLLYQMLCGIKHLHSAGIIHRDLKPSNIVVKSDCTLKILDFGLARTAGTSFMMTPYVVTRYYRAPEVILGMGYKENVDIWSVGCIMGEMVRHKILFPGRDYIDQWNKVIEQLGTPCPEFMKKLQPTVRNYVENRPKYAGLTFPKLFPDSLFPADSEHNKLKASQARDLLSKMLVIDPAKRISVDDALQHPYINVWYDPAEVEAPPPQIYDKQLDEREHTIEEWKELIYKEVMNSEEKTKNGVVKGQPSPSGAAVNSSESLPPSSSVNDISSMSTDQTLASDTDSSLEASAGPLGCCR
  JNK3 phosphorylation of Elk1 (solid phase kinase assay): a marked exception was the absence of TAT-IB(s) inhibition of JNK3 phosphorylation of Elk1
